Test [1] concerns the target T1, human CD22 (hCD22) expressed on the cell surface (human, UniProt P20273 20-847).
T1 construct: whole, on cells; One molecule is used for all cell-surface formats; also called human CD22 antigen; BHK-CD22
Kind of test: cell ELISA on BHK cells expressing human CD22, COS-7 supernatant, OD 655 nm. In general terms: An ELISA detects its analyte on a solid surface through an enzyme-linked reagent.

The target of test [2] is T1, human CD22 (hCD22) expressed on the …. The experiment in a line: cell ELISA on BHK cells expressing human CD22, RHOv2 heavy chain expressed with the RKC light chain in COS cells.
For test [3] the target is unchanged. Kind of test: cell ELISA on BHK cells expressing human CD22, OD 655 nm.
For test [4] the target is unchanged. Kind of test: cell ELISA on BHK cells expressing human CD22, RHOv2D heavy chain expressed with the RKC light chain in COS cells.
Test [5] shares this target. The experiment in a line: cell ELISA on BHK cells expressing human CD22, RHOv2A heavy chain expressed with the RKC light chain in COS cells.
For test [6] the target is unchanged. Kind of test: cell ELISA on BHK cells expressing human CD22, RHOv2B heavy chain expressed with the RKC light chain in COS cells.
Test [7] has the same target. Kind of test: cell ELISA on BHK cells expressing human CD22, RHOv2C heavy chain expressed with the RKC light chain in COS cells.
Test [8] deals with hCD22 (ligand immobilised on the BIAcore CM5 sensor chip) (human, UniProt P20273 20-687, limits assumed). The experiment in a line: SPR (BIAcore 3000), hCD22 immobilised on CM5 chip, IgG injected, 1:1 model. As for the experimental part: Binding affinity of HB22.7 and RHOv2ACD/RKA were determined on a BIAcore 3000 instrument (BIAcore, Inc., Uppsala, Sweden). The ligand, hCD22, was prepared at 50 nM in 10 mM NaOAc, pH4 buffer. It was injected onto an EDC/NHS-activated CM5 sensor chip (BIAcore, Inc. Uppsala, Sweden) using a standard immobilization protocol. Following this, any unreacted active ester moieties were quenched using 1M Et-NH2 (ethanolamine; coupling reagents purchased from BIAcore, Inc.). A total of 535 and 689 RUs hCD22 remained bound to two sensor chip surfaces used in these experiments. Separately, a blank surface was prepared on each sensor chip using the identical protocol (minus protein). The blank surfaces were used as a reference cell in the experiments, and served to correct for both non-specific binding and some housekeeping artifacts.
For the kinetic experiments, HB22.7 and RHOv2ACD/RKA were prepared as two dilution series, starting at 22 nM and 100 nM, then diluted three- and two-fold, respectively, down to final concentrations of 0.03 nM and 0.39 nM in HBS-EP buffer (BIAcore, Inc., consisting of the following: 10 mM HEPES buffer, pH7.4, 150 mM NaCl, 3 mM EDTA, and 0.005% P20). Each concentration of IgG was then injected over both the CD22 and reference cell surfaces, which are connected in series. Between injections, surfaces were regenerated with a 1-minute injection of 3M MgCl2.
(In general: In SPR one partner is held on a chip, and binding of the other changes the refractive index at the surface.)

For test [9], the target named is T1, human CD22 (hCD22) expressed on the …. The experiment in a line: cell ELISA on BHK cells expressing human CD22, COS-7 supernatant, OD 655 nm. The source holds these as a separate data set.

13 molecules from patent US20110182887A1 (AstraZeneca / MedImmune, published 2011) can be followed below.

Like-named read-outs stand apart in the source and are kept apart here.

B1: chH/RK (antibody, V domains shown)
VH: QVQLKESGPGLVAPSQSLSITCTVSGFSLSDYGVNWVRQIPGKGLEWLGIIWGDGRTDYNSALKSRLNISKDNSKSQVFLKMNSLKADDTARYYCARAPGNRAMEYWGQGTSVTVSS
VL: DIVMTQSPSSLSASVGDRVTITCKASQSVTNDVAWYQQKPGKAPKLLIYYASNRYTGVPDRFSGSGYGTDFTLTISSLQPEDFATYFCQQDYRSPWTFGGGTKVEIKR
notes: also called chH+RKC; chimeric HB22.7 heavy chain (chH) + HB227RKC light chain
B1: the concentration for a half-maximal effect (EC50 (read off the curve)) – broadly, the concentration needed to bring the measured effect to its halfway point – in test [1] is around 0.2 µg/mL.

B2: HB227RHOv2 + HB227RKC humanized antibody (antibody, human IgG1, V domains shown)
VH: QVQLEESGGGVVRPGRSLRLSCAASGFTLSDYGVNWIRQAPGKGLEWVGIIWGDGRTDYNSALKSRLTVSRNNSNNTLSLQMNSLTTEDTAVYYCVRAPGNRAMEYWGQGVLVTVS
VL: DIVMTQSPSSLSASVGDRVTITCKASQSVTNDVAWYQQKPGKAPKLLIYYASNRYTGVPDRFSGSGYGTDFTLTISSLQPEDFATYFCQQDYRSPWTFGGGTKVEIKR
notes: Human IgG1 kappa, COS-7 supernatant; Carries all four VH back mutations: F29L, D30S, T49G, F67L; also called RHOv2+RKC
For B2, the binding result in test [2] is on record as “binds”.

B3: HB227RHO + HB227RKC humanized antibody (antibody, human IgG1, V domains shown)
VH: QVQLEESGGGVVRPGRSLRLSCAASGFTLSDYGVNWIRQAPGKGLEWVGIIWGDGRTDYNSALKSRLTVSRNNSNNTLSLQMNSLTTEDTAVYYCVRAPGNRAMEYWGQGVLVTVS
VL: DIVMTQSPSSLSASVGDRVTITCKASQSVTNDVAWYQQKPGKAPKLLIYYASNRYTGVPDRFSGSGYGTDFTLTISSLQPEDFATYFCQQDYRSPWTFGGGTKVEIKR
notes: Human IgG1 kappa, COS-7 supernatant; also called RHO+RKC
Take B3: the binding result in [1] was “binds”.

B4: HB227RHOv2ACD + HB227RKC humanized antibody (antibody, human IgG1, V domains shown)
VH: QVQLEESGGGVVRPGRSLRLSCAASGFTFSDYGVNWIRQAPGKGLEWVTIIWGDGRTDYNSALKSRFTVSRNNSNNTLSLQMNSLTTEDTAVYYCVRAPGNRAMEYWGQGVLVTVS
VL: DIVMTQSPSSLSASVGDRVTITCKASQSVTNDVAWYQQKPGKAPKLLIYYASNRYTGVPDRFSGSGYGTDFTLTISSLQPEDFATYFCQQDYRSPWTFGGGTKVEIKR
notes: Human IgG1 kappa, COS-7 supernatant; also called RHOv2ACD+RKC
As to B4, in [3], the binding result was “binds”.

B5: HB227RHOv2D + HB227RKC humanized antibody (antibody, human IgG1, V domains shown)
VH: QVQLEESGGGVVRPGRSLRLSCAASGFTLSDYGVNWIRQAPGKGLEWVGIIWGDGRTDYNSALKSRFTVSRNNSNNTLSLQMNSLTTEDTAVYYCVRAPGNRAMEYWGQGVLVTVS
VL: DIVMTQSPSSLSASVGDRVTITCKASQSVTNDVAWYQQKPGKAPKLLIYYASNRYTGVPDRFSGSGYGTDFTLTISSLQPEDFATYFCQQDYRSPWTFGGGTKVEIKR
notes: RHOv2 with the F67L back mutation removed; Human IgG1 kappa, COS-7 supernatant; also called HB227v2D
Regarding B5, the binding result in test [4] was “binds”.

B6: HB227RHOv2A + HB227RKC humanized antibody (antibody, human IgG1, V domains shown)
VH: QVQLEESGGGVVRPGRSLRLSCAASGFTFSDYGVNWIRQAPGKGLEWVGIIWGDGRTDYNSALKSRLTVSRNNSNNTLSLQMNSLTTEDTAVYYCVRAPGNRAMEYWGQGVLVTVS
VL: DIVMTQSPSSLSASVGDRVTITCKASQSVTNDVAWYQQKPGKAPKLLIYYASNRYTGVPDRFSGSGYGTDFTLTISSLQPEDFATYFCQQDYRSPWTFGGGTKVEIKR
notes: RHOv2 with the F29L back mutation removed; Human IgG1 kappa, COS-7 supernatant; also called HB227v2A
With B6, the binding result in test [5] was “binds”.

B7: HB227RHOv2B + HB227RKC humanized antibody (antibody, human IgG1, V domains shown)
VH: QVQLEESGGGVVRPGRSLRLSCAASGFTLDDYGVNWIRQAPGKGLEWVGIIWGDGRTDYNSALKSRLTVSRNNSNNTLSLQMNSLTTEDTAVYYCVRAPGNRAMEYWGQGVLVTVS
VL: DIVMTQSPSSLSASVGDRVTITCKASQSVTNDVAWYQQKPGKAPKLLIYYASNRYTGVPDRFSGSGYGTDFTLTISSLQPEDFATYFCQQDYRSPWTFGGGTKVEIKR
notes: RHOv2 with the D30S back mutation removed; Human IgG1 kappa, COS-7 supernatant; also called HB227v2B
With B7, the binding result in test [6] is reported as “binds”.

B8: HB227RHOv2C + HB227RKC humanized antibody (antibody, human IgG1, V domains shown)
VH: QVQLEESGGGVVRPGRSLRLSCAASGFTLSDYGVNWIRQAPGKGLEWVTIIWGDGRTDYNSALKSRLTVSRNNSNNTLSLQMNSLTTEDTAVYYCVRAPGNRAMEYWGQGVLVTVS
VL: DIVMTQSPSSLSASVGDRVTITCKASQSVTNDVAWYQQKPGKAPKLLIYYASNRYTGVPDRFSGSGYGTDFTLTISSLQPEDFATYFCQQDYRSPWTFGGGTKVEIKR
notes: RHOv2 with the T49G back mutation removed; Human IgG1 kappa, COS-7 supernatant; also called HB227v2C
Take B8: the binding result in test [7] is “binds”.

B9: humanized anti-hCD22 antibody RHOv2ACD/RKA (HB227RHOv2ACD VH + HB227RKA VK) (antibody, human IgG1, V domains shown)
VH: QVQLEESGGGVVRPGRSLRLSCAASGFTFSDYGVNWIRQAPGKGLEWVTIIWGDGRTDYNSALKSRFTVSRNNSNNTLSLQMNSLTTEDTAVYYCVRAPGNRAMEYWGQGVLVTVS
VL: DIVMTQSPSSLSASVGDRVTITCKASQSVTNDVAWYQQKPGKAPKLLIYYASNRYTGVPSRFSGSGSGTDFTLTISSLQPEDFATYYCQQDYRSPWTFGGGTKVEIKR
notes: Human IgG1 kappa expression vectors; It was labelled with Alexa-fluor in some cell assays; also called RHOvACD/RKA; RHOACD/RKA
In the case of B9, in [8], the dissociation constant (Kd) (as a rule, the equilibrium constant for the complex coming apart) worked out at 22 nM; the koff – broadly, the first-order rate constant of dissociation – was found to be 0.00069 s⁻¹; the kon (in general, the second-order rate constant of association) was 32000 M⁻¹ s⁻¹.

B10: HB227RHF heavy chain + chimeric HB22.7 light chain (chL) (antibody, human IgG1, V domains shown)
VH: QVQLQESGPALVKPTQTLTLTCTVSGFSLSDYGVNWIRQPPGKALEWLGIIWGDGRTDYNSALKSRLSISKDNSKNQVVLRMTNVDPVDTATYFCARAPGNRAMEYWGQGTVVTVSS
VL: SIVMTQTPKFLLVSAGDRITLTCKASQSVTNDVAWYQQKPGQSPKLLIYYASNRYTGVPDRFTGSGYGTDFTFTISTVQAEDLAVYFCQQDYRSPWTFGGGTKLEI
notes: Human IgG1 kappa, COS-7 supernatant; The VH entry may include the leader; also called HB227RHF+chL; RHF+chL
Consider B10, for which the binding result in test [9] was “binds”.

B11: HB227RHF + HB227RKC humanized antibody (antibody, human IgG1, V domains shown)
VH: QVQLQESGPALVKPTQTLTLTCTVSGFSLSDYGVNWIRQPPGKALEWLGIIWGDGRTDYNSALKSRLSISKDNSKNQVVLRMTNVDPVDTATYFCARAPGNRAMEYWGQGTVVTVSS
VL: DIVMTQSPSSLSASVGDRVTITCKASQSVTNDVAWYQQKPGKAPKLLIYYASNRYTGVPDRFSGSGYGTDFTLTISSLQPEDFATYFCQQDYRSPWTFGGGTKVEIKR
notes: Human IgG1 kappa, COS-7 supernatant; also called RHF+RKC; humanized (RHF+RKC) antibody
For the molecule B11, the “EC50 (read off the curve)” value in test [9] is around 0.2 µg/mL.

B12: HB227RHC + HB227RKC humanized antibody (antibody, human IgG1, V domains shown)
VH: QVQLQESGPALVKPTQTLTLTCTFSGFSLSDYGVNWIRQPPGKALEWLGIIWGDGRTDYNSALKSRLSISKDNSKNQVVLRMTNVDPVDTATYFCARAPGNRAMEYWGQGTVVTVSS
VL: DIVMTQSPSSLSASVGDRVTITCKASQSVTNDVAWYQQKPGKAPKLLIYYASNRYTGVPDRFSGSGYGTDFTLTISSLQPEDFATYFCQQDYRSPWTFGGGTKVEIKR
notes: Human IgG1 kappa, COS-7 supernatant; also called RHC+RKC
Take B12: in test [1], the binding result was “binds”.

B13: HB227RHB + HB227RKC humanized antibody (antibody, human IgG1, V domains shown)
VH: QVQLQESGPALVKPTQTLTLTCTFSGFSLSDYGVNWIRQPPGKALEWLAIIWGDGRTDYNSALKSRLSISKDTSKNQVVLRMTNVDPVDTATYFCARAPGNRAMEYWGQGTVVTVSS
VL: DIVMTQSPSSLSASVGDRVTITCKASQSVTNDVAWYQQKPGKAPKLLIYYASNRYTGVPDRFSGSGYGTDFTLTISSLQPEDFATYFCQQDYRSPWTFGGGTKVEIKR
notes: Human IgG1 kappa, COS-7 supernatant; also called RHB+RKC
As for B13, the binding result in test [1] is “binds”.
